{"source": "patent US20250134019A1", "about": "“TRIKETONE DIOXYGENASE VARIANTS FOR HERBICIDE TOLERANCE” (Monsanto Technology LLC, priority 2022, published 2025)", "key": {"[1]": {"test_system": "transgenic soybean plants", "experiment": "Mesotrione injury of R0 transgenic soybean plants expressing TDO homologs", "assay_type": "in vivo", "conditions": "210 g a.i./ha mesotrione at V3-V4, rated 7-14 days after treatment, mean of all tested events", "method": "Plant expression vectors comprising the selected TDO homologs under the control of one of two constitutive promoters were transformed into soybean via an Agrobacterium tumefaciens-mediated method. Following Agrobacterium transformation, R0 transgenic soybean plants containing a single copy of the transgene were identified through molecular characterization and segregation analysis. Transgenic and wild-type (control) plants were grown in 6-inch pots filled with BM7 soilless mix in a growth chamber under the conditions of 28° C./23° C. (light/dark) and a 16 hr light/8 hr dark photoperiod. Plants were fertilized with 15-5-15 liquid fertilizer at the V3-V4 growth stage and treated with 210 g a.i./ha mesotrione (1X=105 g a.i./ha; Callisto®, Syngenta in 1% crop oil). Plants were visually rated 7-14 days after treatment on a scale of 0% to 100%, with 0%=no injury and 100%=plant death, relative to the wild-type controls. The results summarized in Table 2 represent the mean of all tested events (10-15) for each construct."}, "[2]": {"experiment": "Specific activity of purified TDO proteins, second hydroxylation of mesotrione", "assay_type": "biochemical", "conditions": "FIG. 8", "source_text": "Activity was expressed as nmol/min/mg protein and was the mean of three separate assays on the same enzyme sample (technical reps).\nTo test the hypothesis, the four amino acids of sorghum TDO corresponding to amino acid positions 230, 301, 332, and 335 in rice TDO were replaced with those of rice TDO. The corn, rice, sorghum, and the modified sorghum TDO genes were cloned into a pET28 vector for E. coli expression with His6 tag in the N-terminus. Subsequently, the proteins were expressed and purified by affinity chromatography. BL21-CodonPlus (DE3)-RIPL E. coli cells (Stratagene) were used for expression. Cells transformed with expression vector were grown in autoinduction media (AIM) supplemented with 100 μg mL-1 kanamycin and 34 μg mL-1 chloramphenicol.\nTDO proteins used in this study were expressed in AIM cells using an auto-induction system as described by Studier (2014). Briefly, the recombinant cultures were grown at 37° C. for 3 hours and then 20° C. for one or two days. Cells were harvested by centrifugation and frozen at −80° C. The pellet was resuspended in lysis buffer (Bper and Yper [Pierce] with ratio 3 to 1, 25 mM Tris-HCl, 300 mM NaCl, 10 mM imidazole, pH 8.0). 150 mM ferric ammonium citrate (1000X) was added to the lysate to a final concentration of 150 µM and incubated on ice for 20 minutes. The lysate was centrifuged to clarify the supernatant. Clear supernatant was loaded onto a 5 mL Ni column connected to AKTA Express (GE Healthcare). […] Protein concentrations were determined spectrophotometrically based on their calculated molar absorption extinction coefficients at 280 nm.\nTDO activity was measured by the second hydroxylation of mesotrione. For routine activity measurements of TDO and determining the kinetic properties of the second hydroxylation, the continuous change in A330, which is specific to the second hydroxylation and subsequent non-enzymatic water removal (i.e. the conversion of hydroxy-mesotrione to oxy-mesotrione), was monitored. […] The reaction proceeded until the maximum A330 was obtained (usually 20-120 minutes depending upon the concentration of mesotrione) and the linear portion of the curve was determined by visual inspection. […]\nFor the activity calculation, aliquots of the reaction were removed at various time points during the reaction and heated at 95° C. to halt the reaction. The reaction mixtures were analyzed by HPLC and mass spectrophotometry. By product conversation followed by peak integration on HPLC, a linear plot was obtained and the extinction co-efficient delta between the substrate (mesotrione) and the second product (oxy-mesotrione) was obtained according to the equation ΔA330=(εp-εs)*bΔp where ΔA330 is the change of absorbance at 330 nm and b is the light path."}, "[3]": {"conditions": "promoter Constitutive 1, 3' UTR A"}, "[4]": {"conditions": "specific activity of second hydroxylation"}, "[5]": {"conditions": "promoter Constitutive 2, 3' UTR B"}}, "data": [{"molecule": "Sb.TDO: TDO homolog from Sorghum bicolor, SEQ ID NO:6 (protein, Sorghum bicolor) MAGESWKVPTPVKDLAALVEEPPSQFVQREEDRPGSLMLAADMPDPLPIVDLDKMSTADEATKLRSALQTWGLFLATNHGIDVSLMEDLMKASREFFNQPLQERQKYSNLREGTRFQLEGYGSDPVIAQDHILDWSDRLQLKVEPEDERNLAQWPKHPESFRDLLHEYATKTKTVMVKILRAMAKTLELDEEDFIDQIGGRPQAYARFNYYPPCPRPELVLGIKAHSDGPLLTVLLVDREVGGLQIQRENKWFNVPSIPHALVINLGDSLEIMSNGIFKSPVHRVVTNAEKERISLAMLYAVQRDNVLEPAPGLLDEKRPAKYRRITEAHFLEGVKEHFSKGMRMIETLKI", "values": [{"measurement": "% Injury", "setting": "[1]; [3]", "result": 35, "unit": "%"}, {"measurement": "specific activity of the second hydroxylation", "setting": "[2]; purified His6-tagged protein from E. coli", "result": "not significantly different from the blank"}]}, {"molecule": "SwM: Sb.TDO variant SwM, SEQ ID NO:48, substitutions P230T-A301S-L332R-V335I (protein, TDO variant sequence) MAGESWKVPTPVKDLAALVEEPPSQFVQREEDRPGSLMLAADMPDPLPIVDLDKMSTADEATKLRSALQTWGLFLATNHGIDVSLMEDLMKASREFFNQPLQERQKYSNLREGTRFQLEGYGSDPVIAQDHILDWSDRLQLKVEPEDERNLAQWPKHPESFRDLLHEYATKTKTVMVKILRAMAKTLELDEEDFIDQIGGRPQAYARFNYYPPCPRPELVLGIKAHSDGTLLTVLLVDREVGGLQIQRENKWFNVPSIPHALVINLGDSLEIMSNGIFKSPVHRVVTNAEKERISLAMLYSVQRDNVLEPAPGLLDEKRPAKYRRITEAHFRAGIKEHFSKGMRMIETLKI", "values": [{"measurement": "activity compared to the rice TDO protein", "setting": "[2]; [4]", "result": "about 17%"}]}, {"molecule": "Cl.Col.TDO2: TDO homolog from Coix lacryma-jobi, SEQ ID NO:16 (protein, Coix lacryma-jobi) MASSSWRVPTPVQELAAGVVEPPSQFVLQEQDRPESLLLATDMPEPIPVIDLSRLAAADEASKLRSALQTWGLFLVTNHGIEASLMDDVMAASRDFFYQPLEEKQKYSNLVGGKRFQMEGYGNDMVASQDQVLDWQDRLQLRVEPEDERNLAYWPKHPDSFRDLLHEYASKTKKVRDNVLQAMGKLLELGEDYFISQIGGKASAIARFNYYPPCPRPELVFGIKPHSDGGAVTILLVDNDVGGLQVQKDGIWYTVPSKPHTLVVNLGDSMEILNNGIFKSPVHRVVTNAEKERLSLAMFYGVEGQKVLEPAAALLGEERPARYRKIKAADYIVGLRQGIARGNRFIETLKI", "values": [{"measurement": "% Injury", "setting": "[1]; [5]", "result": 53, "unit": "%"}]}, {"molecule": "Zm.TDO: TDO homolog from Zea mays, SEQ ID NO:4 (protein, Zea mays) MADESWRVPTPVQELAATLEEPPSRYVLQEKDRRGSPLVADDMPEPLPVINLSRLSEDATEAAKLESALQSWGLVLVTNHGIETSLMDGVMDASREFFRQPLEEKQKYSNLIDGKRFQVEGYGNDRVATERQILNWNDRLHLKVAPEDERDYTHWPKHPESFRDVLHEYALETKRVRDGIFRATAKILELDEDHFVRLISDRAAAFARFNYYPPCPRPDLVNGVQPHSDAGVLTILLVDKDVRGLQVQRDGVWYNVPPMPYTLLINLGDIMEIMSNGILKSPVHRVVTNAEKERISLAVFYGVGAENALEPAAGLLDEKRPARYRKISMTDFIAGIHGQFSRGTRFIESLKI", "values": [{"measurement": "% Injury", "setting": "[1]; [3]", "result": 15, "unit": "%"}, {"measurement": "activity lower than rice TDO", "setting": "[2]; [4]", "result": "about 30%"}]}, {"molecule": "Cl.Col.TDO1: TDO homolog from Coix lacryma-jobi, SEQ ID NO:14 (protein, Coix lacryma-jobi) MASSSWKVPTPVQELAATLEEPPSRYVLREKDRPSSPLVADDMPEPLPVINLSRLSEDAAEAAKLEAALQSWGLVLVTNHGIETSLMDDVMDTSREFFNQTLEEKQKYSNLIEGKRFQMEGYGNDRVSTEHQILNWNDRLHLKVAPDDERNYTHWPKHPESFRDVLHEYTLKTKKIRDNICSNGQDIGARFNYYPPCPRPDLVNGVQPHSDAGVLTILLVDKEIRGLQVQRDGIWYNVPRKPYTLLINLGDVMEIMSNGIFKSPVHRVVTNTEKERISLAMFYGVDAENVLEPAAGLLDEKRPARYRKVEITDFVAGVHEHFSRGTRFIESLKI", "values": [{"measurement": "% Injury", "setting": "[1]; [5]", "result": 61, "unit": "%"}]}, {"molecule": "Si.TDO: TDO homolog from Setaria italica, SEQ ID NO:8 (protein, listed as Setaria italica) MANESWKIPMLVQELAAKVQEPPSRYVQPEQQHPVSLVVGAEKPEAIPVIDLSRLLAADGADEEGSKLRLALQSWGLFLIDNHGIETSLMDDLINASREFFHLPLEEKQKCSNLIDGKHYQVEGYGNDPVASKDQILDWLDRLHLRVEPEDERNLVHWPEHPNSFRALLHKYTLNCKRIKDRILWAMAKSLGLDEDYIVAQFSGKAPSFARFNYYPPCPRPDIVFGAKPHSDGGVLTILLMDKDVGGLQVLRDGVWHNVPTSPHRLLVNIGDFSEIMSNGIFKSPVHRVVTNMGKERISLAMFHGLDPEKEIEPATALLHEKQLARYRKIKAKVYLAGFYEHFCRGTRFIDSEDLREVA", "values": [{"measurement": "% Injury", "setting": "[1]; [3]", "result": 35, "unit": "%"}]}]}
